Data reported in patent US9228015B2, “Nogo receptor antagonists and methods of increasing neurite outgrowth” (Biogen Idec MA Inc., priority 2006, dated 2016).

Assays:
[1] = target: T1, Nogo66 binding to sNogoR344-Fc (rat Nogo receptor-1 residues 26-344) (Rattus norvegicus, UniProt Q99M75, A303T/C287S/C43R/E284G/T53A); experiment: SPA bead assay: 125I-Nogo66 binding to immobilized sNogoR344-Fc, inhibition by mAb; details: 125I-Nogo66 binding to sNogoR344-Fc
T1 construct: amino acid residues 26-344 of rat Nogo receptor-1; made in house; CHO (DG44) is described only for sNogoR310-Fc
T1 sequence (Q99M75 26-344 C43R/T53A/E284G/C287S/A303T): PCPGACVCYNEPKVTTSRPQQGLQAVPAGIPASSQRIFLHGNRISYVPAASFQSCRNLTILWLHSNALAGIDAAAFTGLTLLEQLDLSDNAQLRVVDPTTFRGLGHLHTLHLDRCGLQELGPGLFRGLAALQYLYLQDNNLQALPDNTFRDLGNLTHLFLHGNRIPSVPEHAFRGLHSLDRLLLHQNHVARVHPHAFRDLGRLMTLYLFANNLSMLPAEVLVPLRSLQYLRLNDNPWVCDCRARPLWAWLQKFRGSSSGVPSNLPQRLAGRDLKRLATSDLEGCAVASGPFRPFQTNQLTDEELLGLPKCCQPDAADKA
Experimental: 0.5 μg of a soluble Nogo receptor-1 fusion protein comprising amino acid residues 26-344 of rat Nogo receptor-1 and the hinge and Fc region of the rat IgG1 molecule (sNogoR344-Fc) produced as described below was immobilized on […] of protein-A- or wheatgerm agglutinin-conjugated SPA beads (Amersham Pharmacia Biotech) for 2 hours at 25° C. SPA beads coupled with Fc-sNogoR-1, anti-Nogo receptor-1 mAb and 1 μl ^125I-Nogo66 (Amersham, 2000 Ci/mmol, 1 nM) in […] of the HEPES-buffered incubation medium (10 mM HEPES, pH 7.4, 0.1% bovine serum albumin, 0.1% ovalbumin, 2 mM MgCl2, 2 mM CaCl2 and protease inhibitors) was added to each sample well. After 16 hours, radioactivity was measured in quadruplicate samples using a TopCount® (Packard). IC50 values were calculated from a curve-fit analysis (FIG. 3) (PRISM, GraphPad Software, NJ). In some experiments, we also used AP-ligand conjugates (e.g. AP-Nogo66) and detected binding by monitoring alkaline phosphatase activity. We also assayed the ability of the mAbs to block binding of the ligands MAG-Fc and AP-OM-gp to Nogo receptor-1.

[2] = target: T2, fragments of rat NgR1 (sNgR310) (Rattus norvegicus, UniProt Q99M75, C43R/T53A); experiment: Western blot of acid/CNBr fragments of sNgR310 probed with 7E11; format: binding
T2 construct: intact rat NgR1 (aa 27-aa 310); made in house
T2 sequence (Q99M75 27-122 C43R/T53A): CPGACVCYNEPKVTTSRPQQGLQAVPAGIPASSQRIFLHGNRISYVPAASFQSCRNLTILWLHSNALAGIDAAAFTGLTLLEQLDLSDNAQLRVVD
Experimental: (§1) A recombinant fragment of the rat NgR1 that contains all 8 LRR domains and the N- and C-terminal caps (sNgR310) was treated with either acid or cyanogen bromide (CNBr) and separated the fragments by gel electrophoresis. Untreated sNgR310 migrates with an apparent molecular weight of 42 kDa. Acid treatment of sNgR310 produced two major cleavage products of 15 kDa (aa 27-aa 122) and 30 kDa (aa 123-aa 310). CNBr treatment generated three fragments, a 33/35 kDa doublet (aa 27-aa 229), which may represent fragments with heterogeneous glycosylation, a 10 kDa product (aa 241-aa 310), and an 11-amino-acid fragment (as 230-aa 240), which is not retained on the gel. […] Both the 15 kDa acid fragment and the 35 kDa CNBr fragment contained the sequence […] (SEQ ID NO: 1), consistent with 7E11 binding to a single epitope on NgR1.

[3] = target: T3, fragments of rat NgR1 (sNgR310) (Rattus norvegicus, UniProt Q99M75, A303T/C287S/E284G); experiment: as above; format: binding
T3 construct: intact rat NgR1 (aa 27-aa 310); made in house
T3 sequence (Q99M75 123-310 E284G/C287S/A303T): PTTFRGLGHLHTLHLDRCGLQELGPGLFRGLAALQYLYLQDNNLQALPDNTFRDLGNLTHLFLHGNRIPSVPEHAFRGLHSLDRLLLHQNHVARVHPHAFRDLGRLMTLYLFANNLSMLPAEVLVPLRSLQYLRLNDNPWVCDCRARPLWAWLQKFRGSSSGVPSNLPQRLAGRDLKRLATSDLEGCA
Experimental: as §1

[4] = target: T4, fragments of rat NgR1 (sNgR310) (Rattus norvegicus, UniProt Q99M75, C43R/T53A); experiment: as above; format: binding; remark: listed apart in the source
T4 construct: intact rat NgR1 (aa 27-aa 310); made in house
T4 sequence (Q99M75 27-229 C43R/T53A): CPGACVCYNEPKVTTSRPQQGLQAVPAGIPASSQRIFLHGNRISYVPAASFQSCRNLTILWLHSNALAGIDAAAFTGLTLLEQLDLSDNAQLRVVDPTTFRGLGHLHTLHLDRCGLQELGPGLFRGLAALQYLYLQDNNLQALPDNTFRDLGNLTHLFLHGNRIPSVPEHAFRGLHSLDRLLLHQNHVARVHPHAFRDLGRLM
Experimental: as §1

[5] = target: T5, fragments of rat NgR1 (sNgR310) (Rattus norvegicus, UniProt Q99M75, A303T/C287S/C43R/E284G/T53A); experiment: as above; format: binding
T5 construct: intact rat NgR1 (aa 27-aa 310); made in house
T5 sequence (Q99M75 27-310 C43R/T53A/E284G/C287S/A303T): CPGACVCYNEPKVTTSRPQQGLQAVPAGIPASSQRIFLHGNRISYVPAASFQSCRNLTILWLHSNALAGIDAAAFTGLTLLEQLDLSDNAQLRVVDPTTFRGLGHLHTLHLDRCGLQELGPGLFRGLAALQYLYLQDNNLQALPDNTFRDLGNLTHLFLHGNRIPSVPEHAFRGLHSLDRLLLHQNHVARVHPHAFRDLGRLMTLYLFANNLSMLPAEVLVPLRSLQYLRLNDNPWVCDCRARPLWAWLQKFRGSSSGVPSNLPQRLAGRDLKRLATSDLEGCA
Experimental: as §1

[6] = target: T6, fragments of rat NgR1 (sNgR310) (Rattus norvegicus, UniProt Q99M75, A303T/C287S/E284G); experiment: as above; format: binding; remark: listed apart in the source
T6 construct: intact rat NgR1 (aa 27-aa 310); made in house
T6 sequence (Q99M75 241-310 E284G/C287S/A303T): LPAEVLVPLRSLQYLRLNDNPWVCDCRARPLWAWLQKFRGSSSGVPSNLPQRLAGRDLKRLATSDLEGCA
Experimental: as §1

mouse NgR1 = target: T7, mouse NgR1 (Mus musculus, UniProt Q99PI8); experiment: Antibody binding specificity: mouse Nogo receptor-1
T7 sequence (Q99PI8 27-447): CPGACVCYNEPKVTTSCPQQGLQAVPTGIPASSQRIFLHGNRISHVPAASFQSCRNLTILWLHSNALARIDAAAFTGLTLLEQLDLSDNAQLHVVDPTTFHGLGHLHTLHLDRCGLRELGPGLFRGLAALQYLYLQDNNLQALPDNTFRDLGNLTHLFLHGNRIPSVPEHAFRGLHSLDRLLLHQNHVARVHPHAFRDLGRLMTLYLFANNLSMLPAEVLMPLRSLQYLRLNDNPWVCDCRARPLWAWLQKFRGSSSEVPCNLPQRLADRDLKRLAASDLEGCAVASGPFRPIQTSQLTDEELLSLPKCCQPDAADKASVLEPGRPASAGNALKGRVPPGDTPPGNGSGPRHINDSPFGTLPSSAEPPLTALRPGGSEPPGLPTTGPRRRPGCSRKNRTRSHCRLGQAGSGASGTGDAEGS

IC50 [1]: 400 nM | binding to the 15 kDa acid fragment (aa 27-aa 122) [2]: bound | binding to the 30 kDa acid fragment (aa 123-aa 310) [3]: did not bind | binding to the 35 kDa CNBr fragment (aa 27-aa 229) [4]: bound | binding to intact rat NgR1 (aa 27-aa 310) [5]: bound | binding to the 10 kDa CNBr fragment (aa 241-aa 310) [6]: did not bind | binding to mouse Nogo receptor-1 (mouse NgR1): not and poorly
B1: 7E11: murine monoclonal anti-Nogo receptor-1 antibody, immunogen rat Nogo receptor-1 residues 110-125, IgG1 kappa, ATCC PTA-4587 (antibody, V domains shown)
VH: VQLQESGAELVMPGASVKMSCKASGYTFTDYWMHWVKQRPGQGLEWIGAIDPSDSYSSYNQNFKGKATLTVDGSSSTAYMQLSSLTSEDSAVYYCARRITEAGAWFAYWGQGTTVT
VL: MKLPVRLLVLMFWIPASSSDVVMTQTPLSLPVSLGDQASISCRSSQSLVHSNGNTYLHWYLQKPGQSPKLLIYKVSNRFSGVPDRFSGSGSGTDFTLKISRVDAEDLGVYFCSQSTHVPFTFGGGTKLEIKRADAAPTVSISHH
modifications: 7E11 heavy chain; 7E11 light chain
notes: murine monoclonal anti-Nogo receptor-1 antibody, immunogen rat Nogo receptor-1 residues 110-125, IgG1 kappa, ATCC PTA-4587
